B1: P1-077875 (P1-068748 H31S H32Y) (antibody, V domains shown)
VH: QVQLVESGGGVVQPGRSLRLSCAASGFTFSSYAMHWVRQAPGKGLEWVAIIWYDGSNDDYADSVKGRFTISRDNSKNTLYLQMNSLRAEDTAVYYCARDSGFYDSYYFDYWGQGTLVTVSS
VL: EIVLTQSPATLSLSPGERATLSCRASQSVSSSYLAWYQQKPGQAPRLLIYDASNRATGIPARFSGSGSGTDFTLTISSLEPEDFATYYCQQYNSYPYTFGQGTKLEIK
B2: P1-077883 (P1-068748 H31S D57K) (antibody, V domains shown)
VH: QVQLVESGGGVVQPGRSLRLSCAASGFTFSSHAMHWVRQAPGKGLEWVAIIWYDGSNKDYADSVKGRFTISRDNSKNTLYLQMNSLRAEDTAVYYCARDSGFYDSYYFDYWGQGTLVTVSS
VL: EIVLTQSPATLSLSPGERATLSCRASQSVSSSYLAWYQQKPGQAPRLLIYDASNRATGIPARFSGSGSGTDFTLTISSLEPEDFATYYCQQYNSYPYTFGQGTKLEIK
B3: P1-077869 (P1-068748 D57K) (antibody, V domains shown)
VH: QVQLVESGGGVVQPGRSLRLSCAASGFTFSHHAMHWVRQAPGKGLEWVAIIWYDGSNKDYADSVKGRFTISRDNSKNTLYLQMNSLRAEDTAVYYCARDSGFYDSYYFDYWGQGTLVTVSS
VL: EIVLTQSPATLSLSPGERATLSCRASQSVSSSYLAWYQQKPGQAPRLLIYDASNRATGIPARFSGSGSGTDFTLTISSLEPEDFATYYCQQYNSYPYTFGQGTKLEIK
B4: P1-077865 (P1-068748 H31S) (antibody, V domains shown)
VH: QVQLVESGGGVVQPGRSLRLSCAASGFTFSSHAMHWVRQAPGKGLEWVAIIWYDGSNDDYADSVKGRFTISRDNSKNTLYLQMNSLRAEDTAVYYCARDSGFYDSYYFDYWGQGTLVTVSS
VL: EIVLTQSPATLSLSPGERATLSCRASQSVSSSYLAWYQQKPGQAPRLLIYDASNRATGIPARFSGSGSGTDFTLTISSLEPEDFATYYCQQYNSYPYTFGQGTKLEIK
B5: P1-077867 (P1-068748 H32Y) (antibody, V domains shown)
VH: QVQLVESGGGVVQPGRSLRLSCAASGFTFSHYAMHWVRQAPGKGLEWVAIIWYDGSNDDYADSVKGRFTISRDNSKNTLYLQMNSLRAEDTAVYYCARDSGFYDSYYFDYWGQGTLVTVSS
VL: EIVLTQSPATLSLSPGERATLSCRASQSVSSSYLAWYQQKPGQAPRLLIYDASNRATGIPARFSGSGSGTDFTLTISSLEPEDFATYYCQQYNSYPYTFGQGTKLEIK
B6: P1-077877 (P1-068748 H32Y D57K) (antibody, V domains shown)
VH: QVQLVESGGGVVQPGRSLRLSCAASGFTFSHYAMHWVRQAPGKGLEWVAIIWYDGSNKDYADSVKGRFTISRDNSKNTLYLQMNSLRAEDTAVYYCARDSGFYDSYYFDYWGQGTLVTVSS
VL: EIVLTQSPATLSLSPGERATLSCRASQSVSSSYLAWYQQKPGQAPRLLIYDASNRATGIPARFSGSGSGTDFTLTISSLEPEDFATYYCQQYNSYPYTFGQGTKLEIK
notes: the sister clones carry the VL of P1-061015

Target: T1, monovalent hVISTA-ECD (amino acids 32-193 of SEQ ID NO: 1 with a 7xHis tail) (human, UniProt Q9H7M9 33-193)
T1 construct: analyte of the SPR assays; also called huVISTA-His; human VISTA-ECD
T1 sequence (Q9H7M9 other isoform, or with tags, fused parts or gaps limits assumed): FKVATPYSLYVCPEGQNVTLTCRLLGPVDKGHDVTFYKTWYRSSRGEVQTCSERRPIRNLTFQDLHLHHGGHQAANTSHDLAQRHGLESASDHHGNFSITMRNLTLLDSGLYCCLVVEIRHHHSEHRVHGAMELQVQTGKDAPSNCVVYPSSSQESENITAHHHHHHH
Test: SPR 37C, Ab on Protein A, pH 6.0

Row | Binder | fold improvement of off-rate against the '748 antibody [fold]
1 | B1 | ≤ 2
2 | B2 | ≤ 2
3 | B3 | ≤ 2
4 | B4 | ≤ 2
5 | B5 | ≤ 2
6 | B6 | ≤ 2

— patent US20230192860A1 (Bristol-Myers Squibb, published 2023)
